Test results from patent US20230203156A1, “ANTI-MDR1 ANTIBODIES AND USES THEREOF” (KENJOCKETY BIOTECHNOLOGY, INC., priority 2020, published 2023).
Entries after “also recorded” stand apart in the source; their conditions may differ.

B1: B1.129.huH1-huL1(KV3): humanized B1.129; VH SEQ ID NO:63, VL SEQ ID NO:64 (antibody, V domains shown)
VH: EVQLVQSGAEVKKPGASVKVSCKASGYTFSTYVIHWVRQAPGQGLEWIGYIYPYNDYTKYNEKFKDRATLTSDKSTSTAYMELRSLRSDDTAVYYCSRAYYGNLVGYGVDYWGQGTTVTVSS
VL: EIVLTQSPATLSLSPGERATLSCRASSSVSFIYWYQQKPGQSPRPWIFATSNLASGVPARFSGSGSGTDYTLTISSLEPEDFAVYYCHQWGSNLPTFGGGTKLEIK
modifications: humanized sequence
B2: B1.129.huH1-huL1(KV1): humanized B1.129; VH SEQ ID NO:63, VL SEQ ID NO:65 (antibody, V domains shown)
VH: B1 VH
VL: DIQLTQSPSSLSASVGDRVTITCRASSSVSFIYWYQQKPGKSPKPWIFATSNLASGVPSRFSGSGSGTDYTLTISSLQPEDFATYYCHQWGSNLPTFGGGTKLEIK
modifications: humanized sequence
B3: B1.28: anti-MDR1 antibody, Mouse; VH SEQ ID NO:14, VL SEQ ID NO:18 (antibody, listed as Mus musculus, V domains shown)
VH: EVKLVESGGGLVKPGGSLKLSCAASGFTFGLYTMSWVRQTPERRLEWVATISSGGSNTYYPDSVKGRFTISRDNAKNNLFLQMNSLRSEDTALYYCARYYRYDAWFAYWGQGTLVTVSS
VL: DVLLTQTPLSLPVSLGDQASISCRSSQNIVHSTGNTYLDWYLQKPGQSPKLLIYKVSNRFSGVPDRFSGSGSGTDFTLKISRVEAEDLGVYFCFQGSHIPRTFGGGTKLEIK
B4: B1.261: anti-MDR1 antibody, Mouse; VH SEQ ID NO:118, VL SEQ ID NO:122 (antibody, listed as Mus musculus, V domains shown)
VH: QVQLKESGPGLVAPSQSLSITCTVSGFSLTSYGVHWVRQPPGKGLEWLVVIWSDGSTTYNSALKSRLSISKDNSKSQVFLKMNSLQIDDTAMYYCARHGRWLLQRGGAMDYWGQGTSVTVSS
VL: DVVMTQAPKFMSTSVGDRVSVTCRASQNVGSYIAWYQQKLGQSPKALIYSASYRCSGVPDRFTGSGAGTDFTLTIRNVQSEDLAEYFCQQYNSYPLTFGGGTKLEIK
B5: B1.129: anti-MDR1 antibody, Mouse; VH SEQ ID NO:56, VL SEQ ID NO:60 (antibody, listed as Mus musculus, V domains shown)
VH: EVQLQQSGPELVKPGASVKMSCKASGYTFSTYVIHWVKQKPGQGLEWIGYIYPYNDYTKYNEKFKDKATLTSDKSSSTAYMEIRSLTSEDSAVYYCSRAYYGNLVGYGVDYWGQGTSVTVSS
VL: QIVLTQSPAILPASPGEKVTMTCRASSSVSFIYWYQQRPGSSPKPWIFATSNLASGVPARFSGSGSGTSYSLTISRVEAEDAATYYCHQWGSNLPTFGGGTKLEIK

Key:
human MDR1 [1] = target: T1, human MDR1 (Homo sapiens, UniProt P08183); assay: Antibody binding/titration to 293T cells overexpressing human MDR1 (FACS); conditions: 293T cell line overexpressing human MDR1
T1 construct: expressed in transfected cells
Method: Antibody binding to cells was evaluated by flow cytometry. 293T cells stably transfected to express human ABCB1 (293T_KPB1_OX) were washed once in flow cytometry buffer (PBS + 2% FBS + 0.02% sodium azide), resuspended at 2 x 10 \^6 cells/mL in flow cytometry buffer, and dispensed into 96-well microtiter plates at 0.1 mL/well. In the figures, “B1” refers to ABCB1 (also known as MDR1 or Pgp). Recombinant antibodies were added to cells at 5 ug/mL for initial binding confirmation, or serially diluted from 100 ug/mL in flow cytometry buffer. After incubating cells on ice for 30 min, cells were washed twice with flow cytometry buffer. Bound antibody was detected with PE-labeled F(ab′)2 fragment goat anti-human IgG (Jackson ImmunoResearch) and evaluated on an Attune NxT flow cytometer.
Binding titration of recombinant antibodies to ABCB1 transfectants was performed by 3-fold serial dilution of antibodies from 666.7 nM. Diluted antibody in flow cytometry buffer was incubated with cells on ice for 30 min. After 2 washes with flow cytometry buffer, bound antibody was detected with PE-labeled F(ab′)2 fragment goat anti-human IgG (Jackson ImmunoResearch) diluted 1:200 in flow cytometry buffer and incubated with cells for 20 min on ice. After 2 washes with flow cytometry buffer fluorescence was measured on an Attune NxT flow cytometer. Data were analyzed with GraphPad Prism 8.0 software to determine EC50′s.
(§1) Anti-MDR1 mAb B1.129 and a humanized version thereof were assessed for binding to 293T cell line overexpressing human MDR1 or to 293T cells transfected with cynomolgus MDR1. […] B1.129.hz1 and B1.129.hz2 antibodies are the same as the humanized versions B1.129.huH1-huL1(KV3) and B1.129.huH1-huL1(KV1), respectively, listed in Table 2. FIG. 10C summarizes the binding data for the B1.129 antibody.

cynomolgus MDR1 = assay: Antibody binding to 293T cells transfected with cynomolgus MDR1
Method: as §1
Anti-MDR1 mAb B1.28 and a humanized version thereof were assessed for binding to 293T cell line overexpressing human MDR1 or to 293T cells transfected with cynomolgus MDR1.

[2] = test system: A2780 ADR ovarian carcinoma; assay: A2780 ADR drug-resistant ovarian carcinoma model in nude mice; assay type: in vivo; conditions: for tumor volume, single agent: antibody as a single agent; for tumor volume, in combination with paclitaxel: antibody plus paclitaxel
Method: (§2) Anti-ABCB1 antibodies B1.129, B1.261, B1.223, B1.225, B1.188, B1.28, and B1.226 were tested for effect on growth of tumors in immunodeficient mice. The following cancer cell lines were used for generating tumor models.
A2780 ADR: The adriamycin-resistant cell line A2780ADR has been developed by exposure of the parent A2780 cell line (Sigma catalogue no. 93112519) to adriamycin. A2780ADR is cross-resistant to melphalan and vinblastine. To retain resistance adriamycin has to be added to the media. The cells grow as a monolayer and in suspension in spinner cultures and are tumorigenic in immune deficient mice. Together with the cisplatin-resistant variant A2780cis these lines only differ in their exposure to a single drug and should facilitate the search for molecular changes responsible for the expression of pleiotropic drug resistance in human ovarian cancer.
Nude mice were implanted with A2780 ADR cells to model ovarian carcinoma. Anti-B1 monoclonal antibodies are efficacious in A2780 ADR ovarian carcinoma model in nude mice.

[3] = test system: MES-SA DX5 uterine sarcoma; assay: MES-SA DX5 drug-resistant uterine sarcoma model in nude mice; assay type: in vivo; conditions: for tumor volume / tumor growth, single agent / tumor volume / tumor growth, in combination with paclitaxel: MES-SA DX5, nude mice; for tumor volume / tumor growth, single agent: antibody as a single agent; for tumor volume / tumor growth, in combination with paclitaxel: antibody plus paclitaxel
Method: as §2
MES-SA DX5: The multi drug-resistant cell line MES-SA/Dx5 (Sigma. 95051031) was derived from the human uterine sarcoma cell line MES-SA (Sigma Catalogue number. 95051030) which was originally obtained from a tumour from a person at the time of hysterectomy. […] Cross resistance to bleomycin, cisplatin, carmustine, 5-fluorouracil or methotrexate was not observed.
Nude mice were implanted with MES-SA DX5 cells to model uterine sarcoma. Anti-B1 monoclonal antibodies are efficacious in MES-SA DX5 uterine sarcoma model in nude mice.

human MDR1 [4] = target: T1, human MDR1; assay: Efflux blockade of MDR1 fluorescent substrates (flow cytometry); assay type: cell-based
Method: HEK 293T cells expressing human MDR1 or MES-SA/DX5 cells expressing human MDR1 were washed several times and aliquoted into 96-well plates as 50 µl aliquots/well at a cell density of 1 x 10e6 cells per ml in phenol red-free DMEM. Cells were mixed with 300 nM to 1 nM antibodies and incubated for 1 h at 37° C. To determine efflux blockade cells were incubated in the presence of B1 fluorescent substrates as follows: 0.6 µM Rhodamine; 5 µM […] (DiOC2(3)) or 0.6 µM Calcein AM for 1.5 h at 37° C. The cells were then washed twice and finally resuspended in […] PBS. Rhodamine, DiOC2(3) or Calcein AM fluorescence were measured by flow cytometry.
Effect of anti-MDR1 antibodies on efflux of MDR1 substrates Calcein, DIOC2, and Rhodamine was assessed as described in efflux blockade experimental procedure.

[5] = target: T2, human MDR1 extracellular loops 1 and 4 (ECD1, ECD4) (Homo sapiens, UniProt P08183); assay: Epitope mapping with mutant human MDR1 expressed on 293T cells (flow cytometry); assay type: binding; conditions: extracellular loop 1 and extracellular loop 4
T2 construct: FLAG (C); expressed in transfected cells; host or cells: 293T
Text: (§3) To determine binding of anti-MDR1 mAbs listed in Table 2 to the two major extracellular loops 1 and 4 of MDR1, various mutations were constructed to alter or substitute these two loops. To examine binding to cynomolgus extracellular loops, the extracellular loop 1 and/or loop 4 of cynomolgus MDR1 were grafted (with a C-terminal FLAG tag) to substitute for the human loops in the human MDR1 using standard techniques. To examine binding dependence on the normal human loops, MDR1 variants with deletion 79-102 and deletion 82-99 in loop 1 were also generated. Loop 1 is also referred to as ECD1. Loop 4 is also referred to as ECD4. These mutant MDR1 efflux pump variants were expressed on 293T cells using standard methods to generate cells that could be used to distinguish binding of various anti-MDR1 mAbs. The different cells were incubated with different anti-MDR1 mAbs for about 1 hour at 4° C. The cells were washed twice with FACS buffer (PBS containing 0.5% BSA). Alexa647 labeled goat anti-human antibody was added as a secondary antibody, and the samples were incubated on ice for another 1 hour. Samples were washed again and analyzed by flow cytometry.
(§4) FIG. 9 summarizes the findings from preliminary epitope mapping using mutant human MDR1. […] For example, anti-MDR1 mAb B1.129 requires ECD1 and ECD4 for binding to human MDR1. All of the anti-MDR1 antibodies contact ECD4. […] ECD1 refers to the first extracellular domain of human ABCB1, ECD4 refers to the fourth extracellular domain of human ABCB1 and “others” refers to the remainder of the extracellular domains 2-3 and 5-6 of human ABCB1. Only binding to ECD1 and ECD4 was tested.

[6] = test system: human MDR1 extracellular loops 1 and 4 (ECD1, ECD4); assay: as above; assay type: binding; conditions: mutant versus WT human ABCB1; preliminary epitope mapping
Text: as §3, §4

Sequence of cynomolgus MDR1 (as listed by the source): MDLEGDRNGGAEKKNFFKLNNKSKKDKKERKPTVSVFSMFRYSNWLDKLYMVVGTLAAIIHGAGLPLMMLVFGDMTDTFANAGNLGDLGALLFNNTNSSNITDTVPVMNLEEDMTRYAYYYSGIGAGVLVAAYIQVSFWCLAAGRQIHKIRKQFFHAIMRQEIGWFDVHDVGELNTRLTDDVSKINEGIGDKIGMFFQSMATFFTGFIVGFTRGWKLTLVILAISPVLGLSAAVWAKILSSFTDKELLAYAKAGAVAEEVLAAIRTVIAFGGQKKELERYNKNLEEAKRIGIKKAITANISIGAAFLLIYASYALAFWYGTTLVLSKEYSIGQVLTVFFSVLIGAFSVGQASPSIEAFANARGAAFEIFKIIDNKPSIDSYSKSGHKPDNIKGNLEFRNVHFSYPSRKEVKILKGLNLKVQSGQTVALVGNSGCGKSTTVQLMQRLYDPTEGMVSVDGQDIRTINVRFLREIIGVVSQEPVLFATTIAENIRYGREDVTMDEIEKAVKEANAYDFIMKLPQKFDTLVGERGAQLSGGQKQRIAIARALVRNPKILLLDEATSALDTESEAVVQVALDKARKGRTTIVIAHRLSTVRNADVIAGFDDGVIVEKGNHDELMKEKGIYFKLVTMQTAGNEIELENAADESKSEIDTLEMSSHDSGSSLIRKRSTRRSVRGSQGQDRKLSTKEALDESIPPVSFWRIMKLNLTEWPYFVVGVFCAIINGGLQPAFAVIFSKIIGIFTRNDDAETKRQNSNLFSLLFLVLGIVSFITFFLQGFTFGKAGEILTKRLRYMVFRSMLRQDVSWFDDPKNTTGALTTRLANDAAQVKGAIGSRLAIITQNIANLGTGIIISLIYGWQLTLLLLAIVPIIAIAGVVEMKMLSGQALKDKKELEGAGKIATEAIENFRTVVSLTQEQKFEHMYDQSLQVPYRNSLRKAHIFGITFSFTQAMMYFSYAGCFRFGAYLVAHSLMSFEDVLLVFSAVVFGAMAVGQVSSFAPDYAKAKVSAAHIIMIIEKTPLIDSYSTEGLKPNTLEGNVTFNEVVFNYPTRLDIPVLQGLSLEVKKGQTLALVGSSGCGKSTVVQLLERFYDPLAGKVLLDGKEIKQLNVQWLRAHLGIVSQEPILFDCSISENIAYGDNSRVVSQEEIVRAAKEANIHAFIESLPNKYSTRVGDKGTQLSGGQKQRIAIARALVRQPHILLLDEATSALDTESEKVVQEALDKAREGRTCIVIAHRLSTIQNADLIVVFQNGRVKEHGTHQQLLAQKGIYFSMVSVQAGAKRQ

| Molecule | binding to human MDR1 (hB1) (human MDR1 [1]) | binding to cynomolgus MDR1 (cB1) (cynomolgus MDR1) | tumor volume, single agent [2] | tumor volume, in combination with paclitaxel [2] | tumor volume / tumor growth, single agent [3] | tumor volume / tumor growth, in combination with paclitaxel [3] | sensitization of MES-SA DX5 uterine sarcoma to paclitaxel ([3]; MES-SA DX5 tumors in vivo) | inhibition of efflux of DIOC2 (human MDR1 [4]; 293T.hB1 cell line) | inhibition of efflux of Rhodamine (human MDR1 [4]; 293T.hB1 cell line) | inhibition of efflux of DIOC2 (human MDR1 [4]; MES-SA/Dx5 cells) | inhibition of efflux of Rhodamine (human MDR1 [4]; MES-SA/Dx5 cells) | inhibition of efflux of Calcein (human MDR1 [4]; cell line not given) | epitope on human MDR1 [5] | ECD1 required for antibody binding to human ABCB1 [6] | ECD4 required for antibody binding to human ABCB1 [6] |
| --- | --- | --- | --- | --- | --- | --- | --- | --- | --- | --- | --- | --- | --- | --- | --- |
| B1 | binds to both hB1 and cB1 with a lower affinity | binds to both hB1 and cB1 with a lower affinity | – | – | – | – | – | – | – | – | – | – | – | – | – |
| B2 | did not show significant binding | did not show significant binding | – | – | – | – | – | – | – | – | – | – | – | – | – |
| B3 | binds to both hB1 and cB1 | binds to both hB1 and cB1 | decreased tumor volume | decreased tumor volume | – | – | – | – | – | – | – | – | – | – | – |
| B4 | bind to hB1 and cB1 | bind to hB1 and cB1 | decreased tumor volume | decreased tumor volume | decreased tumor volume | decreased tumor volume | sensitized | – | – | – | – | – | – | – | – |
| B5 | binds | binds | decreased tumor volume | decreased tumor volume | decreased tumor volume; also recorded: more effective in inhibiting tumor growth than 15D3 antibody | decreased tumor volume; also recorded: more effective in inhibiting tumor growth than 15D3 antibody | – | inhibited efflux | inhibited efflux | inhibited efflux | inhibited efflux | inhibited efflux of Calcein to a greater extent than the anti-MDR1 antibody 15D3 | bind to an epitope comprising extracellular loop 1 and extracellular loop 4 | requires | requires |
